Literature values, collected in publication PMC4965862.

Target: Cys45 (UniProt position 45, AFTGICQGELD)
Details: reduced enzyme (Cys45 thiol/thiolate)

**Q.** Which pKa does the source give for “Alkyl hydroperoxide reductase E (AhpE), one-cysteine peroxiredoxin (Mycobacterium tuberculosis)” here?
**A.** 5.2
